Measured values reported in patent US20220356265A1 (KEIO UNIVERSITY, published 2022).

Columns and labels:
human glypican-1 (GPC-1) = molecular target: T1, human glypican-1 (GPC-1) (human, UniProt P35052 24-530); assay: statement opening Example 7; no assay named
T1 construct: whole, on cells; also called GPC-1 antigen
T1 sequence (looked up): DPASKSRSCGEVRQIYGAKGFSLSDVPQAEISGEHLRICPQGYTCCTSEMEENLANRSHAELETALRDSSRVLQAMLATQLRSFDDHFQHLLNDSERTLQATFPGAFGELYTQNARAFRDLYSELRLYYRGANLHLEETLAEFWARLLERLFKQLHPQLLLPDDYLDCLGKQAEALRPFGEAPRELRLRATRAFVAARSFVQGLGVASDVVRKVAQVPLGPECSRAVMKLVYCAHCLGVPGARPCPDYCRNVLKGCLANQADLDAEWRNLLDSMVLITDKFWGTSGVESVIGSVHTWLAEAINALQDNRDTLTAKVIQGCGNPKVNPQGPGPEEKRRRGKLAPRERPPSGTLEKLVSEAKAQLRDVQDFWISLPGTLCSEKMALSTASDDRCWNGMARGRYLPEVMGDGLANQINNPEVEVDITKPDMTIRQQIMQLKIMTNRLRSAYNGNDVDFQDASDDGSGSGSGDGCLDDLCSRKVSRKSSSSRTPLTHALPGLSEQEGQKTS

mouse GPC-1 = molecular target: T2, mouse GPC-1 (mouse, UniProt Q9QZF2 24-529); assay: statement opening Example 7; no assay named
T2 construct: whole, on cells; also called mouse glypican-1
T2 sequence (looked up): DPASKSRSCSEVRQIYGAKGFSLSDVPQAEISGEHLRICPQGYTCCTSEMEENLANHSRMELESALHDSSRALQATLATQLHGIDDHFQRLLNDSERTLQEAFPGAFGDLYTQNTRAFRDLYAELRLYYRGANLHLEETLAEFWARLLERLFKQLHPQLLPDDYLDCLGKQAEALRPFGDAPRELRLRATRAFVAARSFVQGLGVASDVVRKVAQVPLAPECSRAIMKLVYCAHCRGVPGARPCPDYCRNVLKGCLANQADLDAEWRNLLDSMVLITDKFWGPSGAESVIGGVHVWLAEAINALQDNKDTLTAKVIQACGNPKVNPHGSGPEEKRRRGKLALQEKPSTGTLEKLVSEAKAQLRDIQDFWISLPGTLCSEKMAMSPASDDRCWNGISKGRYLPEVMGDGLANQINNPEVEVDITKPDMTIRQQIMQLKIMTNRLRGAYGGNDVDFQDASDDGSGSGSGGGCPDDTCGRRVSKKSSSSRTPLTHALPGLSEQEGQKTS

binding result (human glypican-1 (GPC-1)): binds | binding result (mouse GPC-1): binds
B1: anti-GPC-1-CAR (Type A or Type B not stated) (other)
VH: AVTLDESGGGLQTPGRALSLVCKASGFTFSRYAMYWVRQAPGKGLEFVAGIGNTGRYTGYGSAVKGRATISRDSGQSTVRLQLNNLRAEDTGNYYCAKSVSPYCCDAADIDAWGHGTEVIVSS
VL: ASTQPSSVSANPGETVKITCSGGSSGYAYGWYQQKSPGSAPVTLLYSNNNRPSDIPSRFSGSKSGSTATLTITGVQAEDEAVYFCGSVDSSSYAGIFGAGTTLTVL
notes: VH and VL in truth stand in one CAR chain with a (Gly4Ser)3 linker, a human CD28-derived part and the human CD3zeta intracellular domain; also called GPC-1 CAR gene of the invention; CAR of the anti-GPC-1-CAR-T cells
